Paper PMC12168134, “Improving the solubility of single domain antibodies using VH‐like hallmark residues” (Protein Science : A Publication of the Protein Society, 2025)

B1: Nlgn2 extracellular domain with His6 tag in the C-terminus (domain or fragment, mouse, UniProt Q69ZK9 15-678, looked up)
chain: QRGGGGPGGGAPGGPGLGLGSLGEERFPVVNTAYGRVRGVRRELNNEILGPVVQFLGVPYATPPLGARRFQPPEAPASWPGVRNATTLPPACPQNLHGALPAIMLPVWFTDNLEAAATYVQNQSEDCLYLNLYVPTEDGPLTKKRDEATLNPPDTDIRDSGKKPVMLFLHGGSYMEGTGNMFDGSVLAAYGNVIVVTLNYRLGVLGFLSTGDQAAKGNYGLLDQIQALRWLSENIAHFGGDPERITIFGSGAGASCVNLLILSHHSEGLFQKAIAQSGTAISSWSVNYQPLKYTRLLAAKVGCDREDSTEAVECLRRKSSRELVDQDVQPARYHIAFGPVVDGDVVPDDPEILMQQGEFLNYDMLIGVNQGEGLKFVEDSAESEDGVSASAFDFTVSNFVDNLYGYPEGKDVLRETIKFMYTDWADRDNGEMRRKTLLALFTDHQWVAPAVATAKLHADYQSPVYFYTFYHHCQAEGRPEWADAAHGDELPYVFGVPMVGATDLFPCNFSKNDVMLSAVVMTYWTNFAKTGDPNQPVPQDTKFIHTKPNRFEEVVWSKFNSKEKQYLHIGLKPRVRDNYRANKVAFWLELVPHLHNLHTELFTTTTRLPPYATRWPPRTPGPGTSGTRRPPPPATLPPESDIDLGPRAYDRFPGDSRDYSTELS
notes: Neuroligin 2 (Nlgn2), mouse, extracellular domain, residues 15-678; Construct used to immunise the alpaca; main SEC peak was a dimer; also called recombinant Nlgn2 extracellular domain; mouse Nlgn2 (15-678); source: Expi293F cells, supernatant, purified (Ni-NTA, SEC); not shown: His6, C-terminal, kept
B2: Biotinylated recombinant Nlgn2 extracellular domain with Avitag (domain or fragment, mouse, UniProt Q69ZK9 15-678, looked up)
chain: B1 chain
modifications: biotin on the Avitag (biotinylated with BirA)
notes: Neuroligin 2 (Nlgn2), extracellular domain; residues 15-678 of mouse Nlgn2 are stated only for the His6 construct used for immunisation, not for this Avitag construct; probably the same; Eluted as a dimeric peak in SEC; also called Nlgn2 with Avitag; Biotinylated Nlgn2; source: purified by SEC, biotinylated with BirA; not shown: Avitag, C-terminal, kept

Legend:
[1] = biological target: the molecule itself; experiment: SEC; Hiload 16/600 Superdex 200 pg in PBS; Nlgn2 extracellular domain with His6
[2] = biological target: the molecule itself; experiment: SEC; Nlgn2 with Avitag; 10 mM HEPES-NaOH pH 7.4, 150 mM NaCl, 3 mM CaCl2

Row | Protein | stoichiometry N [1] | stoichiometry N [2]
1 | B1 | 2 | –
2 | B2 | – | 2
